B1: CPEB3 Ribozyme (parent)
chain: GGGGGCCACAGCAGAAGCGUUCACGUCGCGGCCCCUGUCAGAUUCUGGUGAAUCUGCGAAUUCUGCUGU

Variants of: B1
Assay: self-cleavage, relative activity (ratio to wild type); higher = more cleavage; co-transcriptional

Row | Variant | self-cleavage
1 | GCGGGCCACAGCAGCAGCGUUCACGUCGCGGCCCCUGUCAGAUUCUGGUGAAUCUGCGAAUUCUGCUGU [G2C A15C] | 0.0125
2 | GCGGGCCACAGCAGUAGCGUUCACGUCGCGGCCCCUGUCAGAUUCUGGUGAAUCUGCGAAUUCUGCUGU [G2C A15U] | 0.0423
3 | GCGGGCCACAGCAGGAGCGUUCACGUCGCGGCCCCUGUCAGAUUCUGGUGAAUCUGCGAAUUCUGCUGU [G2C A15G] | 0.0305
4 | GCGGGCCACAGCAGAAGCGUUCCCGUCGCGGCCCCUGUCAGAUUCUGGUGAAUCUGCGAAUUCUGCUGU [G2C A23C] | 0.0568
5 | GAGGGCCACAGCAGAAGCGUUCACGUCGCGGCCCCUGUCAGAUUCUGGCGAAUCUGCGAAUUCUGCUGU [G2A U49C] | 0.21
6 | GAGGGCCACAGCAGAAGCGUUCACGUCGCGGCCCCUGUCAGAUUCUGGGGAAUCUGCGAAUUCUGCUGU [G2A U49G] | 0.149
7 | GAGGGCCACAGCAGAAGCGUUCACGUCGCGGCCCCUUUCAGAUUCUGGUGAAUCUGCGAAUUCUGCUGU [G2A G37U] | 0.0408
8 | GAGGGCCACAGCAGAAGCGUUCACGUCGCGGCCCCUGUCAGAUUCAGGUGAAUCUGCGAAUUCUGCUGU [G2A U46A] | 0.202
9 | GAGGGCCACAGCAGAAGCGUUCACGUCGCGGCCCCUGUCAGAUUCGGGUGAAUCUGCGAAUUCUGCUGU [G2A U46G] | 0.135
10 | GAGGGCCACAGCAGAAGCGUUCACGUCGCGGCCCCUGUCAGAUUCCGGUGAAUCUGCGAAUUCUGCUGU [G2A U46C] | 0.13
11 | GCGGGCCCCAGCAGAAGCGUUCACGUCGCGGCCCCUGUCAGAUUCUGGUGAAUCUGCGAAUUCUGCUGU [G2C A8C] | 0.039
12 | GCGGGCCUCAGCAGAAGCGUUCACGUCGCGGCCCCUGUCAGAUUCUGGUGAAUCUGCGAAUUCUGCUGU [G2C A8U] | 0.0675
13 | GCGGGCCACUGCAGAAGCGUUCACGUCGCGGCCCCUGUCAGAUUCUGGUGAAUCUGCGAAUUCUGCUGU [G2C A10U] | 0.0719
14 | GCGGGCCACGGCAGAAGCGUUCACGUCGCGGCCCCUGUCAGAUUCUGGUGAAUCUGCGAAUUCUGCUGU [G2C A10G] | 0.0728
15 | GCGGGCCACCGCAGAAGCGUUCACGUCGCGGCCCCUGUCAGAUUCUGGUGAAUCUGCGAAUUCUGCUGU [G2C A10C] | 0.0373
16 | GAGGGCCACAGCAGAAGCGUUCACGUCGCGGCCCCUGUCAGAUCCUGGUGAAUCUGCGAAUUCUGCUGU [G2A U44C] | 0.123
17 | GAGGGCCACAGCAGAAGCGUUCACGUCGCGGCCCCUGUCAGAUUCUGGUGAAUCUGCGAACUCUGCUGU [G2A U61C] | 0.0999
18 | GAGGGCCACAGCAGAAGCGUUCACGUCGCGGCCCCUGUCAGAUUCUGGUGAAUCUGCGAAUUCCGCUGU [G2A U64C] | 0.0804
19 | GAGGGCCACAGCAGAAGCGUUCACGUCGCGGCCCCUGUCAGAUUCUGGUGAAUCUGCGAAUUCAGCUGU [G2A U64A] | 0.115
20 | GAGGGCCACAGCAGAAGCGUUCACGUCGCGGCCCCUGUCAGAUUCUGGUGAAUCUGCGAAUUCGGCUGU [G2A U64G] | 0.0844
21 | GAGGGCCACAGCAGAAGCGUUCACGUCGCGGCCCCUGUCAGAUUCUGGUGAAGCUGCGAAUUCUGCUGU [G2A U53G] | 0.109
22 | GAGGGCCACAGCAGAAGCGUUCACGUCGCGGCCCCUGUCAGAUUCUGGUGAAUCUUCGAAUUCUGCUGU [G2A G56U] | 0.0991
23 | GAGGGCCACAGCAGAAGCGUUCACGUCGCGGCCCCUGUCAGAUUCUGGUGAAUCUCCGAAUUCUGCUGU [G2A G56C] | 0.0906
24 | GAGGGCCACAGCAGAAGCGUUCACGUCGCGGCCCCUGUCAGAUUCUGGUGAAUCUACGAAUUCUGCUGU [G2A G56A] | 0.1
25 | GAGGGCCACAGCAGAAGCGUUCACGUCGCGGCCCCCGUCAGAUUCUGGUGAAUCUGCGAAUUCUGCUGU [G2A U36C] | 0.129
26 | GAGGGCCACAGCAGAAGCGUUCACGUCGCGGCCCCAGUCAGAUUCUGGUGAAUCUGCGAAUUCUGCUGU [G2A U36A] | 0.0357

Row | Variant | self-cleavage
27 | GAGGGCCACAGCAGAAGCGUUCACGUCGCGGCCCCGGUCAGAUUCUGGUGAAUCUGCGAAUUCUGCUGU [G2A U36G] | 0.209
28 | GAGGGCCACAGCAGAAGCGUUCACGUCGCGGCCCCUGUCAGAUUCUGGUGAAUCUGCGAAUUCUGCCGU [G2A U67C] | 0.242
29 | GAGGGCCACAGCAGAAGCGUUCACGUCGCGGCCCCUGUCAGAUUCUGGUGAAUCUGCGAAUUCUGCGGU [G2A U67G] | 0.167
30 | GAGGGCCACAGCAGAAGCGUUCACGUCGCGGCCCCUGUCAGAUUCUGGUGAAUCUGCGAAUUCUGCAGU [G2A U67A] | 0.281
31 | GAGGGCCACAGCAGAAGCGUUCACGACGCGGCCCCUGUCAGAUUCUGGUGAAUCUGCGAAUUCUGCUGU [G2A U26A] | 0.11
32 | GAGGGCCACAGCAGAAGCGUUCACGGCGCGGCCCCUGUCAGAUUCUGGUGAAUCUGCGAAUUCUGCUGU [G2A U26G] | 0.0691
33 | GAGGGCCACAGCAGAAGCGUUCACGCCGCGGCCCCUGUCAGAUUCUGGUGAAUCUGCGAAUUCUGCUGU [G2A U26C] | 0.114
34 | GAGGGCCACAGCAGAAGCGUUCACGUCGCGGCCCCUGUCAAAUUCUGGUGAAUCUGCGAAUUCUGCUGU [G2A G41A] | 0.0631
35 | GAGGGCCACAGCAGAAGCGUUCACGUCGCGGCCCCUGUCAUAUUCUGGUGAAUCUGCGAAUUCUGCUGU [G2A G41U] | 0.0833
36 | GAGGGCCACAGCAGAAGCGUUCACGUCGCGGCCCCUGUCAGAUUCUGGUGAAUCUGCAAAUUCUGCUGU [G2A G58A] | 0.0846
37 | GAGGGCCACAGCAGAAGCGUUCACGUCGCGGCCCCUGUCAGAUUCUGGUGAAUCUGCUAAUUCUGCUGU [G2A G58U] | 0.221
38 | GAGGGCCACAGCAGAAGCGUUCACGUCGCGGCCCCUGUCAGAUUCUGGUGAAUCUGCCAAUUCUGCUGU [G2A G58C] | 0.106
39 | GCGGGCCACAGCAGAAGCGUUCACGUCGCGGCCCCUGUCAGGUUCUGGUGAAUCUGCGAAUUCUGCUGU [G2C A42G] | 0.0702
40 | GAGGGCCACAGCAGAAGCGUUCACGUCGCGGCCCCUGUCAGAUUCUGAUGAAUCUGCGAAUUCUGCUGU [G2A G48A] | 0.213
41 | GAGGGCCACAGCAGAAGCGUUCACGUCGCGGCCCCUGUCAGAUUCUGUUGAAUCUGCGAAUUCUGCUGU [G2A G48U] | 0.215
42 | GAGGGCCACAGCAGAAGCGUUCACGUCGCGGCCCCUGUCAGAUUCUGCUGAAUCUGCGAAUUCUGCUGU [G2A G48C] | 0.227
43 | GAGGGCCACAGCAGAAGCGUUCACGUCGCGGCCCCUGUCAGAUUCUGGUCAAUCUGCGAAUUCUGCUGU [G2A G50C] | 0.154
44 | GAGGGCCACAGCAGAAGCGUUCACGUCGCGGCCCCUGUCAGAUUCUGGUUAAUCUGCGAAUUCUGCUGU [G2A G50U] | 0.173
45 | GAGGGCCACAGCAGAAGCGUUCACGUCGCGGCCCCUGUCAGAUUCUGGUAAAUCUGCGAAUUCUGCUGU [G2A G50A] | 0.177
46 | GAGGGCCACAGCAGAAGCGUUCACGUCGCGGCCCCUGUCAGAUUCUGGUGAAUCUGCGAAUUCUUCUGU [G2A G65U] | 0.067
47 | GAGGGCCACAGCAGAAGCGUUCACGUCGCGGCCCCUGUCAGAUUCUGGUGAAUCUGCGAAUUCUCCUGU [G2A G65C] | 0.122
48 | GAGGGCCACAGCAGAAGCGUUCACGUCGCGGCCCCUGUCAGAUUCUCGUGAAUCUGCGAAUUCUGCUGU [G2A G47C] | 0.176
49 | GAGGGCCACAGCAGAAGCGUUCACGUCGCGGCCCCUGUCAGAUUCUAGUGAAUCUGCGAAUUCUGCUGU [G2A G47A] | 0.189
50 | GAGGGCCACAGCAGAAGCGUACACGUCGCGGCCCCUGUCAGAUUCUGGUGAAUCUGCGAAUUCUGCUGU [G2A U21A] | 0.114
51 | GAGGGCCACAGCAGAAGCGUGCACGUCGCGGCCCCUGUCAGAUUCUGGUGAAUCUGCGAAUUCUGCUGU [G2A U21G] | 0.0545
52 | GAGGGCCACAGCAGAAGCGUCCACGUCGCGGCCCCUGUCAGAUUCUGGUGAAUCUGCGAAUUCUGCUGU [G2A U21C] | 0.0698

Row | Variant | self-cleavage
53 | GAGGGCCACAGCAGAAGCGUUCACGUCGCGGCCCCUGUCAGAUUCUGGUGAAUCUGCGAAUACUGCUGU [G2A U62A] | 0.11
54 | GAGGGCCACAGCAGAAGCGUUCACGUCGCGGCCCCUGUCAGAUUCUGGUGAAUCUGCGAAUGCUGCUGU [G2A U62G] | 0.129
55 | GAGGGCCACAGCAGAAGCGUUCACGUCGCGGCCCCUGUCAGAUUCUGGUGAAUCUGCGAAUCCUGCUGU [G2A U62C] | 0.146
56 | GAGGGCCACAGCAGAAGCGUUCACGUCGCGGCCCCUGUCAGAUUCUGGUGAAUCCGCGAAUUCUGCUGU [G2A U55C] | 0.0545
57 | GAGGGCCACAGCAGAAGCGUUCACGUCGCGGCCCCUGUCAGAUUCUGGUGAAUCAGCGAAUUCUGCUGU [G2A U55A] | 0.109
58 | GAGGGCCACAGCAGAAGCGUUCACGUCGCGGCCCCUGUCAGAUUCUGGUGAAUCGGCGAAUUCUGCUGU [G2A U55G] | 0.0739
59 | GAGGGCCACAGCAGAAGCGUUCACGUCGCGGCCCCUGUCAGAGUCUGGUGAAUCUGCGAAUUCUGCUGU [G2A U43G] | 0.144
60 | GAGGGCCACAGCAGAAGCGUUCACGUCGCGGCCCCUGUCAGAAUCUGGUGAAUCUGCGAAUUCUGCUGU [G2A U43A] | 0.139
61 | GAGGGCCACAGCAGAAGCGUUCACGUCGCGGCCCCUGUCAGACUCUGGUGAAUCUGCGAAUUCUGCUGU [G2A U43C] | 0.123
62 | GCGGGCCACAGCAGAAGCGUUCACGUCGCGGCCCCUGUCUGAUUCUGGUGAAUCUGCGAAUUCUGCUGU [G2C A40U] | 0.0469
63 | GCGGGCCACAGCAGAAGCGUUCACGUCGCGGCCCCUGUCCGAUUCUGGUGAAUCUGCGAAUUCUGCUGU [G2C A40C] | 0.0316
64 | GCGGGCCACAGCAGAAGCGUUCACGUCGCGGCCCCUGUCGGAUUCUGGUGAAUCUGCGAAUUCUGCUGU [G2C A40G] | 0.0911
65 | GAGGGCCACAGCAGAAGCGGUCACGUCGCGGCCCCUGUCAGAUUCUGGUGAAUCUGCGAAUUCUGCUGU [G2A U20G] | 0.0568
66 | GAGGGCCACAGCAGAAGCGUUCACGUCGCGGCCCCUGCCAGAUUCUGGUGAAUCUGCGAAUUCUGCUGU [G2A U38C] | 0.117
67 | GAGGGCCACAGCAGAAGCGUUCACGUCGCGGCCCCUGACAGAUUCUGGUGAAUCUGCGAAUUCUGCUGU [G2A U38A] | 0.134
68 | GAGGGCCACAGCAGAAGCGUUCACGUCGCGGCCCCUGUCAGAUUCUGGUGAAUCUGCGAAUUCUGCUGA [G2A U69A] | 0.256
69 | GAGGGCCACAGCAGAAGCGUUCACGUCGCGGCCCCUGUCAGAUUCUGGUGAAUCUGCGAAUUCUGCUGG [G2A U69G] | 0.335
70 | GCGGGCCACAGCAGAAGCGUUCACGUCGCGGCCCCUGUCAGAUUCUGGUGCAUCUGCGAAUUCUGCUGU [G2C A51C] | 0.0374
71 | GCGGGCCACAGCAGAAGCGUUCACGUCGCGGCCCCUGUCAGAUUCUGGUGAAUCUGCGAAUUCUGCUGU [G2C] | 0.0678
72 | GCGGGCCACAGCAGACGCGUUCACGUCGCGGCCCCUGUCAGAUUCUGGUGAAUCUGCGAAUUCUGCUGU [G2C A16C] | 0.0354
73 | GCGGGCCACAGCAGAGGCGUUCACGUCGCGGCCCCUGUCAGAUUCUGGUGAAUCUGCGAAUUCUGCUGU [G2C A16G] | 0.0604
74 | GCGGGCCACAGCAGAUGCGUUCACGUCGCGGCCCCUGUCAGAUUCUGGUGAAUCUGCGAAUUCUGCUGU [G2C A16U] | 0.0422
75 | GCGGGCCACAGCUGAAGCGUUCACGUCGCGGCCCCUGUCAGAUUCUGGUGAAUCUGCGAAUUCUGCUGU [G2C A13U] | 0.0221
76 | GCGGGCCACAGCGGAAGCGUUCACGUCGCGGCCCCUGUCAGAUUCUGGUGAAUCUGCGAAUUCUGCUGU [G2C A13G] | 0.084
77 | GAGGGCCACAGCAGAAGCGUUCACGUCGCGGCCCCUGUCAGAUUCUGGUGAAUCUGCGAAUUCUGCUCU [G2A G68C] | 0.335
78 | GAGGGCCACAGCAGAAGCGUUCACGUCGCGGCCCCUGUCAGAUUCUGGUGAAUCUGCGAAUUCUGCUAU [G2A G68A] | 0.445
